{
  "source": "patent US20260235581A1",
  "about": "“METHOD FOR THE SELECTION OF AN ECOBIOLOGICAL COMPOUND CAPABLE OF INCREASING THE SKIN TOLERANCE THRESHOLD” (NAOS INSTITUTE OF LIFE SCIENCE, priority 2023, published 2026)",
  "molecules": {"B1": {"name": "EGF: epidermal growth factor protein, AF-100-15, Peprotech (protein, UniProt P01133 23-1207, looked up)", "Pro-epidermal growth factor": "PQHWSCPEGTLAGNGNSTCVGPAPFLIFSHGNSIFRIDTEGTNYEQLVVDAGVSVIMDFHYNEKRIYWVDLERQLLQRVFLNGSRQERVCNIEKNVSGMAINWINEEVIWSNQQEGIITVTDMKGNNSHILLSALKYPANVAVDPVERFIFWSSEVAGSLYRADLDGVGVKALLETSEKITAVSLDVLDKRLFWIQYNREGSNSLICSCDYDGGSVHISKHPTQHNLFAMSLFGDRIFYSTWKMKTIWIANKHTGKDMVRINLHSSFVPLGELKVVHPLAQPKAEDDTWEPEQKLCKLRKGNCSSTVCGQDLQSHLCMCAEGYALSRDRKYCEDVNECAFWNHGCTLGCKNTPGSYYCTCPVGFVLLPDGKRCHQLVSCPRNVSECSHDCVLTSEGPLCFCPEGSVLERDGKTCSGCSSPDNGGCSQLCVPLSPVSWECDCFPGYDLQLDEKSCAASGPQPFLLFANSQDIRHMHFDGTDYGTLLSQQMGMVYALDHDPVENKIYFAHTALKWIERANMDGSQRERLIEEGVDVPEGLAVDWIGRRFYWTDRGKSLIGRSDLNGKRSKIITKENISQPRGIAVHPMAKRLFWTDTGINPRIESSSLQGLGRLVIASSDLIWPSGITIDFLTDKLYWCDAKQSVIEMANLDGSKRRRLTQNDVGHPFAVAVFEDYVWFSDWAMPSVMRVNKRTGKDRVRLQGSMLKPSSLVVVHPLAKPGADPCLYQNGGCEHICKKRLGTAWCSCREGFMKASDGKTCLALDGHQLLAGGEVDLKNQVTPLDILSKTRVSEDNITESQHMLVAEIMVSDQDDCAPVGCSMYARCISEGEDATCQCLKGFAGDGKLCSDIDECEMGVPVCPPASSKCINTEGGYVCRCSEGYQGDGIHCLDIDECQLGEHSCGENASCTNTEGGYTCMCAGRLSEPGLICPDSTPPPHLREDDHHYSVRNSDSECPLSHDGYCLHDGVCMYIEALDKYACNCVVGYIGERCQYRDLKWWELRHAGHGQQQKVIVVAVCVVVLVMLLLLSLWGAHYYRTQKLLSKNPKNPYEESSRDVRSRRPADTEDGMSSCPQPWFVVIKEHQDLKNGGQPVAGEDGQAADGSMQPTSWRQEPQLCGMGTEQGCWIPVSSDKGSCPQVMERSFHMPSYGTQTLEGGVEKPHSLLSANPLWQQRALDPPHQMELTQ", "modifications": "Pro-epidermal growth factor", "notes": "epidermal growth factor protein, AF-100-15, Peprotech"}},
  "tested_on": "TAFA4",
  "assay": "TAFA4 synthesis in normal human keratinocyte culture supernatant, dot blot",
  "assay_type": "cell-based",
  "details": "72 hours of incubation, EGF 30 ng/ml, versus KGM medium control set to 100%, statistically significant",
  "procedure": "Normal human keratinocytes (NHK) have been used in this study. They come from Promocell (Germany). The cells are seeded at 100,000 cells/well in the 24-well plates in KGM. After 24 hours, the cells are incubated with the compound shown in the table below in KBM+P/S medium at 37° C., 5% CO2.\nAfter 72 hours of incubation, the supernatants and protein extracts (obtained from the cell layer) were recovered and stored at −80° C.\nAfter 72 hours of incubation at 37° C., 5% CO2, the supernatants and protein extracts (obtained from the cell layer) are recovered and stored at −80° C.\nBefore assaying the TAFA4 protein, an evaluation of the toxicity of the compounds is performed using the MTT test. Only the concentrations making it possible to obtain a viability greater than 80% are selected to be quantified by ELISA and dot blot.\nThe results are expressed as a percentage of TAFA4 expression by standardising the control to 100% (KGM medium control). The data have been obtained from an independent experiment carried out in triplicate.",
  "data": [
    {"molecule": "B1", "values": [
      {"measurement": "effect on the synthesis of TAFA4 (modulation of TAFA4 in the NHK supernatant)", "result": "inhibits the synthesis of TAFA4"}
    ]}
  ]
}
